{"source": "patent US20240336672A1", "about": "(INSTITUT PASTEUR, published 2024)", "binders": {"B1": {"name": "Cv2.3235 (recombinant human IgG1) (antibody, V domains shown)", "VH": "EVQLVESGGGLIQPGGSLRLSCAASGFTVSRNYMSWVRQAPGKGLEWVSVIYSGGSTFYADSVKGRFTISRDNSKNTLYLQMNSLRAEDTAVYYCARDGDYYGMDVWGQGTTVTVSS", "VL": "DIQMTQSPSFLSASVGDRVTITCRASQGISSFLAWYQQKPGKAPKLLIYGASTLQSGVTSRFSGSGSGTEFTLTISSLQPEDFATYYCQRLDSYPPITFGQGTRLEIKR"}, "B2": {"name": "Cv2.3194 (recombinant human IgG1) (antibody, V domains shown)", "VH": "B1 VH with F27I, S30T, R31S, S53P, G99L, D100V, Y101V", "VL": "EIVLTQSPGTLSLSPGERATLSCRASQSVSSSYLAWYQQKPGQAPRLLIYGASSRATGIPGRFSGSGSGTDFTLTISRLEPEDFAIYYCQQGVTFGGGTKVEIKR"}, "B3": {"name": "Cv2.5213 (recombinant human IgG1) (antibody, V domains shown)", "VH": "B1 VH with R31S, V50L, F58Y, G99L, D100N, T111A", "VL": "DIQMTQSPSSLSASVGDRVTITCRASQGISSYLAWYQQKPGKAPKLLIYAASTLQSGVPSRFSGSGSGTDFTLTISSLQPEDFATYYCQQLDSYSPFTFGPGTKVDIKR"}, "B4": {"name": "Cv2.1169 (recombinant human IgG1) (antibody)", "heavy": "QVQLVQSGPEVKKPGTSVKVSCKASGFTFTTSAVQWVRQARGQRLEWIGWIVVGSGNTNYAQKFQERVTITRDMSTTTAYMELSSLRSEDTAVYYCAAPYCSGGTCLDGFDIWGQGTMVTVSSASTKGPSVFPLAPSSKSTSGGTAALGCLVKDYFPEPVTVSWNSGALTSGVHTFPAVLQSSGLYSLSSVVTVPSSSLGTQTYICNVNHKPSNTKVDKKVEPKSCDKTHTCPPCPAPELLGGPSVFLFPPKPKDTLMISRTPEVTCVVVDVSHEDPEVKFNWYVDGVEVHNAKTKPREEQYNSTYRVVSVLTVLHQDWLNGKEYKCKVSNKALPAPIEKTISKAKQPREPQVYTLPPSRDELTKNQVSLTCLVKGFYPSDIAVEWESNGQPENNYKTTPPVLDSDGSFFLYSKLTVDKSRWQQGNVFSCSVMHEALHNHYTQKSLSLSPGK", "light": "not shown", "notes": "also called Cv2.1169 IgG"}, "B5": {"name": "COV2-2196 (parental IgG1 version) (antibody, V domains shown)", "VH": "QMQLVQSGPEVKKPGTSVKVSCKASGFTFMSSAVQWVRQARGQRLEWIGWIVIGSGNTNYAQKFQERVTITRDMSTSTAYMELSSLRSEDTAVYYCAAPYCSSISCNDGFDIWGQGTMVTVSS", "VL": "not shown"}, "B6": {"name": "TIX (antibody, V domains shown)", "VH": "B5 VH", "VL": "not shown", "notes": "also called Tixagevimab"}, "B7": {"name": "Cv2.5179 (recombinant human IgG1) (antibody, V domains shown)", "VH": "B5 VH with M2V, M30T, I53V, Y100H, I104T, N107Y, G109A", "VL": "not shown", "notes": "also called Cv2.5179 IgG"}, "B8": {"name": "Cv2.1353 (recombinant human IgG1) (antibody, V domains shown)", "VH": "EVQLVESGGGLVQPGGSLRLSCAASGVTVSSNYMNWVRQAPGKGLEWVSVIYSGGSTFYADSVKGRFIISRDNSKNTLYLQMNSLKTEDTAVYYCARDLGPMGFDIWGQGTMVTVSS", "VL": "B3 VL with S10F, D70E, D92N, Y94D, S95P, F97V"}, "B9": {"name": "ADG-2 (antibody, V domains shown)", "VH": "EVQLVESGGGLVKPGGSLRLSCAASGFTFSSYYMNWVRQAPGKGLEWVSSISEDGYSTYYPDSLKGRFTISRDSAKNSLYLQMNSLRADDTAVYYCARDFSGHTAWAGTGFEYWGQGTLVTVSS", "VL": "QSVLTQPPSVSGAPGQRITISCTGSSSNIGAGYDVHWYQQLPGTAPKLLIYGSSSRNSGVPDRFSGSKSGTSASLAITGLQAEDEADYYCQSYDSSLSVLYTFGTGTKVTVL"}, "B10": {"name": "Adintrevimab (antibody, V domains shown)", "VH": "B9 VH", "VL": "B9 VL"}}, "key": {"[1]": {"target": "T1, SARS-CoV-2 S1 domain, Wuhan (SARS-CoV-2, UniProt P0DTC2 16-681)", "test": "ELISA, coated antigen; also: test concentration or dose not given here"}, "[2]": {"target": "T1, SARS-CoV-2 S1 domain, Wuhan", "test": "SPR (Biacore), antibody immobilised"}, "[3]": {"target": "T2, SARS-CoV-2 spike, Wuhan strain, on virus or pseudotyped particles (SARS-CoV-2, UniProt P0DTC2 14-1273)", "test": "cell-based or functional assay"}, "[4]": {"target": "T1, SARS-CoV-2 S1 domain, Wuhan", "test": "SPR (Biacore), IgG immobilized, viral protein as analyte"}, "[5]": {"target": "T1, SARS-CoV-2 S1 domain, Wuhan", "test": "SPR (Biacore), antibody coupled to CM5 chip, viral protein as analyte"}, "[6]": {"target": "T2, SARS-CoV-2 spike, Wuhan strain, on …", "test": "cell-based or functional assay", "remark": "listed apart in the source"}, "[7]": {"target": "T1, SARS-CoV-2 S1 domain, Wuhan", "test": "ELISA"}, "[8]": {"target": "T1, SARS-CoV-2 S1 domain, Wuhan", "test": "ELISA", "set-up": "unit not given beside the values"}, "[9]": {"target": "SARS-CoV-2 RBD domain, Wuhan (SARS-CoV-2)", "test": "RBD-ACE2 competition ELISA", "set-up": "unit not given beside the values"}, "[10]": {"target": "SARS-CoV-2 RBD domain, Wuhan (SARS-CoV-2)", "test": "ELISA", "set-up": "unit not given beside the values"}, "[11]": {"target": "SARS-CoV-2 RBD domain, Wuhan (SARS-CoV-2)", "test": "RBD-ACE2 competition ELISA"}}, "note": "Where a chain is given by its changes, count along the chain named. For OD405nm in this document: test concentration or dose not given here. For PseudoNEUT (%) in this document: test concentration or dose not given here. For S-FuseNEUT (%) in this document: test concentration or dose not given here.", "data": [{"binder": "B1", "values": [{"measurement": "ELISA OD", "setting": "[1]", "value": 3.9, "unit": "OD"}, {"measurement": "Kd", "setting": "[2]", "value": 18.9, "unit": "nM"}, {"measurement": "PseudoNEUT (%)", "setting": "[3]", "value": 100, "unit": "%"}, {"measurement": "S-FuseNEUT (%)", "setting": "[3]", "value": 100, "unit": "%"}]}, {"binder": "B2", "values": [{"measurement": "Kd", "setting": "[4]", "value": 1.2, "unit": "nM"}, {"measurement": "ELISA OD", "setting": "[1]", "value": 3.7, "unit": "OD"}, {"measurement": "Kd", "setting": "[5]", "value": "< 1", "unit": "pM"}, {"measurement": "Pseudoneutralization IC50", "setting": "[6]", "value": 18.9, "unit": "ng/mL"}, {"measurement": "Pseudoneutralization IC90", "setting": "[6]", "value": 241, "unit": "ng/mL"}, {"measurement": "S-Fuse neutralization IC50", "setting": "[6]", "value": 3, "unit": "ng/mL"}, {"measurement": "S-Fuse neutralization IC90", "setting": "[6]", "value": 9.8, "unit": "ng/mL"}, {"measurement": "PseudoNEUT (%)", "setting": "[3]", "value": 100, "unit": "%"}, {"measurement": "S-FuseNEUT (%)", "setting": "[3]", "value": 100, "unit": "%"}, {"measurement": "OD405nm", "setting": "[7]", "value": 3.4}]}, {"binder": "B3", "values": [{"measurement": "ELISA OD", "setting": "[1]", "value": 3.5, "unit": "OD"}, {"measurement": "Kd", "setting": "[2]", "value": 520, "unit": "nM"}, {"measurement": "PseudoNEUT (%)", "setting": "[3]", "value": 100, "unit": "%"}, {"measurement": "S-FuseNEUT (%)", "setting": "[3]", "value": 96, "unit": "%"}]}, {"binder": "B4", "values": [{"measurement": "Kd", "setting": "[4]", "value": 1.44, "unit": "nM"}, {"measurement": "koff", "setting": "[4]", "value": 0.000354, "unit": "s⁻¹"}, {"measurement": "kon", "setting": "[4]", "value": 246000, "unit": "M⁻¹ s⁻¹"}, {"measurement": "ELISA OD", "setting": "[1]", "value": 3.5, "unit": "OD"}, {"measurement": "Kd", "setting": "[5]", "value": "< 1", "unit": "pM"}, {"measurement": "Pseudoneutralization IC50", "setting": "[6]", "value": 3, "unit": "ng/mL"}, {"measurement": "Pseudoneutralization IC90", "setting": "[6]", "value": 12.4, "unit": "ng/mL"}, {"measurement": "S-Fuse neutralization IC50", "setting": "[6]", "value": 1.5, "unit": "ng/mL"}, {"measurement": "S-Fuse neutralization IC90", "setting": "[6]", "value": 3.5, "unit": "ng/mL"}, {"measurement": "PseudoNEUT (%)", "setting": "[3]", "value": 100, "unit": "%"}, {"measurement": "S-FuseNEUT (%)", "setting": "[3]", "value": 95, "unit": "%"}, {"measurement": "OD405nm", "setting": "[7]", "value": 3.3}]}, {"binder": "B5", "values": [{"measurement": "AUC", "setting": "[8]", "value": 3}]}, {"binder": "B6", "values": [{"measurement": "OD405nm", "setting": "[7]", "value": 3.3}]}, {"binder": "B7", "values": [{"measurement": "AUC (Blocking)", "setting": "[9]", "value": 103}, {"measurement": "AUC (Binding)", "setting": "[10]", "value": 11}, {"measurement": "IC50 (read off the curve)", "setting": "[11]", "value": "~0.6", "unit": "µg/mL"}]}, {"binder": "B8", "values": [{"measurement": "ELISA OD", "setting": "[1]", "value": 3.5, "unit": "OD"}, {"measurement": "Kd", "setting": "[2]", "value": 6, "unit": "nM"}, {"measurement": "PseudoNEUT (%)", "setting": "[3]", "value": 100, "unit": "%"}, {"measurement": "S-FuseNEUT (%)", "setting": "[3]", "value": 100, "unit": "%"}]}, {"binder": "B9", "values": [{"measurement": "AUC", "setting": "[8]", "value": 3}]}, {"binder": "B10", "values": [{"measurement": "OD405nm", "setting": "[7]", "value": 3.3}]}]}
